“Also recorded” adds a separate entry of the source.
Legend:
Cx43 CT = target: T1, Cx43 CT (Rattus norvegicus, UniProt P08050); assay: Protein thermal shift assay, Cx43 CT; assay type: binding; conditions: 500 μg/ml protein, 25-100 μM peptide
T1 construct: CT: amino acids 255 to 382) alone; GST (N); made in house; host or cells: E. coli BL21
Procedure: Thermal stability of recombinant GST-PDZ2 or Cx43 CT in the presence or absence of peptides was determined in a 96-well format. Each assay well was composed of 500 μg/ml protein, 25-100 μM of each peptide in PBS buffer, pH7.4. All assays were performed independently six times. Samples were generally prepared in 96-well plates at final volumes of 20 μL. The fluorescent dye SYPRO Orange (5000× concentrate in DMSO, ThermoFisher, S6650) was added to a final concentration of 8X. Reactions were run on QuantStudio 6 Flex Real-Time PCR system (Applied Biosystems, part of Life Technologies Corporation, CA) according to the manufacturer's recommendations using a melt protocol in 0.05-degree/see increments from 25° C. to 95° C. The Reporter Dye was “ROX” and quencher Dye and passive reference were selected as “None” for the melt curve according to manufacturer's instructions. The data were analyzed using Protein Thermal Shift™ Software v1.3 package (Applied Biosystems, CA).

ZO-1 PDZ2 = target: T2, ZO-1 PDZ2 (Homo sapiens, UniProt Q07157); assay: EDC cross-linking to GST fusion ZO-1 PDZ domains; assay type: binding; conditions: 5, 25 and 50 μM
T2 construct: the second of the three PDZ (PDZ2) domains of ZO-1; made in house; host or cells: E. coli BL21
T2 sequence (Q07157 186-264 limits assumed): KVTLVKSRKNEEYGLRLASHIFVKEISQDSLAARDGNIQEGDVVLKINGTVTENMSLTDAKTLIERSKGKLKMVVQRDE
Procedure: To characterize the interaction between the Cx43 CT substrate and peptides, the in vitro kinase assay was performed as above with modification and the constituents then subjected to a cross-linking reaction. The assay buffer used was 20 mM 3-(N-morpholino) propanesulfonic acid (MOPS), pH 7.2. All other reagents present in the kinase reaction were maintained as described above. The reaction was allowed to proceed at 37° C. for 15 minutes. Afterwards, the carbodiimide crosslinker 1-Ethyl-3-(3-dimethylaminopropyl) carbodiimide HCl (EDC) (Thermo, 22980) was added to each solution for a final concentration of 20 mM. The solution was allowed to cross-link for one hour at room temperature. The reaction was stopped by the addition of 4×LDS loading buffer, boiled for 5 minutes and subsequently separated by PAGE. The resulting gel was stained in Coomassie brilliant blue (Sigma, B0770) for two hours and destained in a solution of 4% methanol 7% acetic acid overnight. Gel bands were subsequently excised for mass spectrometric analysis. For the direct interaction between protein and peptides, PBS, pH 7.5 was used as the coupling buffer. The protein (50 μg/ml) and peptide (25 μM) were allowed to react at room temperature for one hour before EDAC was added to the reaction mixture. The reaction was Western blotted for Cx43, GST or NeutroAvidin.

[1] = test system: Neonatal cardiac fibroblasts (NHFs); assay: Collagen synthesis by neonatal cardiac fibroblasts, Western blotting; assay type: cell-based, rat
Description: Isolation and treatment of Neonatal Cardiac Fibroblasts with Cx43 based peptides (peptides used included ACT1, JM1, JM2, Antennapedia [ANT], reverse ACT1 [Rev], poly Arginine [poly r]). Said peptides with and without internalization vectors can be loaded into the provided EVs and can elicit results similar to those observed for naked peptide as follows. Neonatal cardiac fibroblasts (NHFs) were isolated from 3-4 day old rat hearts by collagenase digestion (100 U/mL) and differential attachment as previously described (Borg et ah, 1984). All cells were maintained in Dulbecco's Modified Eagle Medium (DMEM) supplemented with 10% Fetal Bovine Serum and 100 U/mL penicillin G and 100 μg/mL streptomycin and used prior to passage four. For experiments, 40,000 NHFs were plated into the wells of a 24-well tissue culture plate and grown for 24-48 hours. On the day of treatment, media was removed from each well and replaced with fresh media containing 50 μg/mL L-ascorbic acid-2-phosphate; Sigma Chemical Co., St. Louis, MO). The appropriate volume of each peptide (resuspended in sterile, deionized 18 MQ resistivity water) was added to achieve the desired final concentration (30, 90, 180 µM peptide concentrations were tested). Culture plates were incubated overnight in a 37° C. incubator with 5% C02.
Protein Isolation and Examination of Collagen Synthesis by Western Blotting. Conditioned culture media was collected from each well and stored at −20° C. for analysis of soluble collagen. Cellular protein, including insoluble collagen and collagen still within the NHFs, were isolated by adding 100-200 μL, of cell lysis buffer (0.01 M Tris, pH 7.4, 0.001 M Sodium Orthovanadate, 1% sodium dodecylsulfate [SDS]) to each well and incubating 10 minutes at room temperature. Prior to addition, cell lysis buffer was warmed to facilitate solubilization of SDS and 100 u L of Halt protease inhibitor (Pierce Biotechnology, Rockford, IL) was added per 10 mL buffer to be used. After incubation, the well bottoms were scraped and liquid transferred to a microcentrifuge tube for storage at −20° C. Protein concentrations of cell lysates were determined using a Micro BCA assay (Pierce). SDS-PAGE samples were prepared by combining either 10 μg of cell lysate or 30 μL of conditioned media with XT loading buffer (BioRad, Hercules, CA), dithiothreitol and boiled for five minutes. Samples were loaded onto 3-8% Tris-Acetate Criterion X T gels (BioRad, Hercules, CA) and proteins separated at 140V. After electrophoresis, proteins were transferred onto […] nitrocellulose membranes (BioRad) overnight at room temperature (Transfer buffer: 25 mM Tris, 192 mM Glycine, 20% Methanol, 0.01% SDS). The presence of collagen was determined by probing the membranes with a rabbit anti-mouse collagen type I antibody (MD Biosciences) at 1:20,000 dilution in blocking buffer (5% milk in Tris-buffered saline) followed by a goat anti-rabbit IgG horseradish peroxidase conjugated antibody at 1:100,000 (Southern Biotech Associates) and detection with Pierce SuperSignal Femto West detection reagent (Pierce). To assess the activity of JM1 and JM2 peptides with respect to collagen production and their potential in mediating wound healing, cardiac fibroblasts were treated with these two peptides and their effectiveness compared to that for the previous described Cx43 peptide ACT1. NHFs were treated with various concentrations of JM1, JM2, ACT1, and ANT (Antennapedia) peptides, vehicle (water) or left untreated and the production of collagen both in the culture media and cell-associated collagen assessed by western blotting. […] To evaluate the impact of the poly-Arginine (poly-r)N-terminal sequence on JM1 and Jm2 activity, NHF cells were treated with a poly-r peptide.

T1 sequence (P08050 255-382): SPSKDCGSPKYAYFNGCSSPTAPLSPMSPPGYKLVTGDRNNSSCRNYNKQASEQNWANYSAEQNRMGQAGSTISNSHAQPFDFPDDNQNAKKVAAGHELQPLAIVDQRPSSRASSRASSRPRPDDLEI

Row | Sequence | Cx43 CT melt temperature (Tm) (Cx43 CT) | interaction with ZO-1 PDZ2 (ZO-1 PDZ2) | mature type I collagen in conditioned media ([1]; 30, 90, 180 µM) | mature type I collagen in conditioned media ([1]; 180 μM) | collagen produced versus poly-r peptide ([1]; about 90 μM) | mature type I collagen in cell lysate ([1]; versus ACT1 peptide)
1 | RQPKIWFPNRRKPWKK RPRPAALAI (RQPKIWFPNRRKPWKKRPRPAALAI) [M1 AALAI] | no propensity to alter Cx43 CT thermal stability | – | – | – | – | –
2 | RQPKIWFPNRRKPWKKRPRPDDLAI [M3 DDLAI] | no propensity to alter Cx43 CT thermal stability | – | – | – | – | –
3 | RQPKIWFPNRRKPWKKRPRPDDLE [alpha CT1-I] | highly significant decreases in melt temperature | incompetent to interact; also recorded: abrogates interaction with ZO-1 PDZ2 | – | – | – | –
4 | RQPKIWFPNRRKPWKKRPRPDDLEI [alpha CT1] | highly significant decreases in melt temperature | selectivity of alpha CT1 for ZO-1 PDZ2 | dose-dependent reduction in the secretion of mature, fully processed collagen | – | – | –
5 | VFFKGVKDRVKGRSD [JM2] | – | – | dose-dependent decrease in the production of mature, type I collagen | no mature type I collagen was detected | less than half of that produced by cells treated with the poly-r peptide | more profound reduction in the amount of mature type I collagen

— US20250221936A1, “ENGINEERED HEMICHANNELS, ENGINEERED VESICLES, AND USES THEREOF” (VIRGINIA TECH INTELLECTUAL PROPERTIES, INC., priority 2018, published 2025)
